The test system of assay [1] is Capan-1, human pancreas adenocarcinoma xenografts. The assay can be described thus: Radiotherapy / combination therapy study in mice bearing human pancreatic tumour xenografts. The assay is classed as in vivo. The conditions noted are these: for survival versus untreated control animals: control (36 days). The procedure:
ED-B-fibronectin domain expression in mouse pancreatic tumour models as well in human pancreatic cancer tissue, pancreatitis and normal pancreas was investigated by immunohistochemical analysis. SPECT (=single photon emission computed tomography) imaging was performed in an orthotopic pancreas cancer mouse model (DAN-G human pancreas carcinoma, DMSZ No. ACC249) with the ^99mTc labelled ED-B-fibronectin domain targeting scFv antibody fragment AP39, described in WO 03/055917. In addition MRI imaging was performed. In radiotherapy studies, mice bearing human pancreatic tumour xenografts (Capan-1, human pancreas adenocarcinoma, ATTC-No. HTB-79) were treated with a single dose of either 37 MBq or 74 MBq of ^131I-labelled ED-B-fibronectin domain targeting L19-SIP (=fusion protein). For combination therapy Capan-1 tumour bearing mice received two cycles of gemcitabine (1 g/m^2/week for three weeks with a one-week break), followed by a single dose of 37 MBq ^131I-L19-SIP 24 h after the first injection of gemcitabine. In a first experiment Capan-1 tumour bearing mice received either a single dose of 37 MBq of ^131I labelled ED-B-fibronectin domain targeting L19-SIP, or two cycles of gemcitabine (1 g/m^2/week for three weeks with a one-week break) as stand alone therapies. For combination therapy mice received two cycles of gemcitabine together with a single dose of 37 MBq ^131I-L19-SIP 24 h after the first injection of gemcitabine. In a second experiment Capan-1 tumour bearing mice were treated with a single dose of either 37 MBq or 74 MBq of ^131I labelled ED-B-fibronectin domain targeting L19-SIP (=fusion protein). For combination therapy Capan-1 tumour bearing mice received two cycles of gemcitabine (1 g/m^2/week for three weeks with a one-week break), together with a single dose of 37 MBq 1311-L19-SIP 24 h after the first injection of gemcitabine.
(In xenograft studies the graft and the host belong to different species.)

The target in assay [2] is T1, ED-B domain of fibronectin (Homo sapiens, UniProt P02751).
T1 construct: The ED-B, a small domain of 91 amino acids
To be noted: cited from earlier work.

T1 sequence (P02751 1271-1359 limits assumed): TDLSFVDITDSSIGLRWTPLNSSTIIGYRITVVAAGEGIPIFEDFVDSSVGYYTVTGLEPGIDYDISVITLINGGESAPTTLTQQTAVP

With `Nc1ccn([C@@H]2O[C@H](CO)[C@@H](O)C2(F)F)c(=O)n1` [gemcitabine, 2′-deoxy-2′,2′-difluorocytidine], in assay [1] (gemcitabine alone, two cycles (1 g/m^2/week for three weeks, one-week break), Capan-1 tumour bearing mice), the “survival versus untreated control animals” value is reported as “did not differ from untreated control animals”. Regarding “scFv(L19): human single chain Fv antibody fragment specific for the ED-B domain of fibronectin”, the “binding affinity for ED-B” value in assay [2] was “picomolar”.

B1: ^131I-L19-SIP (conjugate, chains of the INN, looked up)
VH: EVQLLESGGGLVQPGGSLRLSCAASGFTFSSFSMSWVRQAPGKGLEWVSSISGSSGTTYYADSVKGRFTISRDNSKNTLYLQMNSLRAEDTAVYYCAKPFPYFDYWGQGTLVTVSS
VL: EIVLTQSPGTLSLSPGERATLSCRASQSVSSSFLAWYQQKPGQAPRLLIYYASSRATGIPDRFSGSGSGTDFTLTISRLEPEDFAVYYCQQTGRIPPTFGQGTKVEIK
modifications: small immunoprotein iodine-131 label
With B1, in assay [1] (37 MBq ^131I-L19-SIP alone, Capan-1 tumour bearing mice), the “survival versus untreated control animals” value was “did not differ from untreated control animals”. In addition, the “tumour growth inhibition compared to untreated control tumours” value in assay [1] (37 MBq ^131I-L19-SIP, single dose) was “did not result in tumour growth inhibition”. Moreover, the median survival in assay [1] (single dose of 74 MBq ^131I-L19-SIP alone, Capan-1 tumour bearing mice, untreated control 32 days) came out at 44 days.

The values are drawn from patent US20090110680A1, “Combination of an anti ED-B fibronectin domain antibody and gemcitabine” (priority 2006, published 2009).
